Among the data in patent US20250090583A1 are NFAT-GFP in Jurkat cells co-cultured overnight with ELA-pulsed T2 cells, against WT Jkt-DMF5, NFAT-GFP in Jkt-DMF5FATADALN cells co-cultured with Raji (CD19+) cells and blinatumomab, against WT Jkt-DMF5 and NFAT-GFP in Jkt-DMF5GGGSGSG cells co-cultured with Raji (CD19+) cells and blinatumomab, against WT Jkt-DMF5 values, retold here.

The target in assay [1] is MART-1 peptide … (ELA) presented by HLA-A2 on peptide-pulsed T2 cells. The experiment in a line: cell-based or functional assay.
Assay [2] has as its target CD3 of the TCR-CD3 complex on human T cells (human) (UniProt P07766). The assay can be described thus: cell-based or functional assay.

Consider “DMF5 TCR with alpha chain connecting peptide motif mutated to GGGSGSG”, for which the NFAT-GFP in Jurkat cells co-cultured overnight with ELA-pulsed T2 cells, against WT Jkt-DMF5 in assay [1] was 50 % reduction.

In assay [2], blinatumomab (bispecific antibody) yielded an NFAT-GFP in Jkt-DMF5FATADALN cells co-cultured with Raji (CD19+) cells and blinatumomab, against WT Jkt-DMF5 of under 80 % reduction; an NFAT-GFP in Jkt-DMF5GGGSGSG cells co-cultured with Raji (CD19+) cells and blinatumomab, against WT Jkt-DMF5 of under 80 % reduction.
